The record followed here is IntAct's records for PubMed 7538907.

The chains are these.
B1: Tumor necrosis factor receptor superfamily member 6 (Homo sapiens), P25445 (parent)
chain: MLGIWTLLPLVLTSVARLSSKSVNAQVTDINSKGLELRKTVTTVETQNLEGLHHDGQFCHKPCPPGERKARDCTVNGDEPDCVPCQEGKEYTDKAHFSSKCRRCRLCDEGHGLEVEINCTRTQNTKCRCKPNFFCNSTVCEHCDPCTKCEHGIIKECTLTSNTKCKEEGSRSNLGWLCLLLLPIPLIVWVKRKEVQKTCRKHRKENQGSHESPTLNPETVAINLSDVDLSKYITTIAGVMTLSQVKGFVRKNGVNEAKIDEIKNDNVQDTAEQKVQLLRNWHQLHGKKEAYDTLIKDLKKANLCTLAEKIQTIILKDITSDSENSNFRNEIQSLV
B2: FAS-associated death domain protein (Homo sapiens), Q13158 (parent)
chain: MDPFLVLLHSVSSSLSSSELTELKFLCLGRVGKRKLERVQSGLDLFSMLLEQNDLEPGHTELLRELLASLRRHDLLRRVDDFEAGAAAGAAPGEEDLCAAFNVICDNVGKDWRRLARQLKVSDTKIDSIEDRYPRNLTERVRESLRIWKNTEKENATVAHLVGALRSCQMNLVADLVQEVQQARDLQNRSGAMSPMSWNSDASTSEAS

Variants of B1 are the subject of the first assay. Particulars: with fadd_human FADD.
For MLGIWTLLPLVLTSVARLSSKSVNAQVTDINSKGLELRKTVTTVETQNLEGLHHDGQFCHKPCPPGERKARDCTVNGDEPDCVPCQEGKEYTDKAHFSSKCRRCRLCDEGHGLEVEINCTRTQNTKCRCKPNFFCNSTVCEHCDPCTKCEHGIIKECTLTSNTKCKEEGSRSNLGWLCLLLLPIPLIVWVKRKEVQKTCRKHRKENQGSHESPTLNPETVAINLSDVDLSKYITTIAGVMTLSQVKGFVRKNGNNEAKIDEIKNDNVQDTAEQKVQLLRNWHQLHGKKEAYDTLIKDLKKANLCTLAEKIQTIILKDITSDSENSNFRNEIQSLV [V254N], the “effect of a mutation on the interaction” value is “decreasing interaction”.

In the next assay the parent is B2. The settings on record: with tnr6_human FAS.
MDPFLVLLHSVSSSLSSSELTELKFLCLGRVGKRKLERVQSGLDLFSMLLEQNDLEPGHTELLRELLASLRRHDLLRRVDDFEAGAAAGAAPGEEDLCAAFNVICDNVGKDWRRLARQLKNSDTKIDSIEDRYPRNLTERVRESLRIWKNTEKENATVAHLVGALRSCQMNLVADLVQEVQQARDLQNRSGAMSPMSWNSDASTSEAS [V121N]: the “effect of a mutation on the interaction” value is recorded as “decreasing interaction”.
